Measured values: patent publication US11078245B2, “Colon and pancreas cancer peptidomimetics” (PRECISION BIOLOGICS, INC., priority 2010, dated 2021)
Where “and” joins values, the source holds several entries; their conditions need not be identical. Identical values can stand only once. Like-named read-outs stand apart in the source and are kept apart here.

How the values were obtained:
Colon cancer = experiment: Immunohistochemistry: human tissues with biotinylated NEO-101; assay type: binding
Text: (§1) Consequently, the positively stained “normal” tissues may have already undergone genotypic changes (“pre-cancerous”) resulting in the expression of the aberrantly glycosylated MUC5AC antigen that could lead to detection of carcinoma with NEO-101.

Normal colon = experiment: as above; assay type: binding
Text: as §1

Normal pancreas = experiment: as above; assay type: binding
Text: as §1

Normal prostate = experiment: as above; assay type: binding
Text: as §1

Normal uterus = experiment: as above; assay type: binding
Text: as §1

Pancreas cancer = experiment: as above; assay type: binding
Text: as §1

Prostate cancer = experiment: as above; assay type: binding
Text: as §1

Uterus cancer = experiment: as above; assay type: binding
Text: as §1

DU145 (Prostate) = experiment: ADCC 4-hour 111-Indium release assay; assay type: cell-based, human
[1] = system: human AsPC-1 pancreas tumor; experiment: AsPC-1 pancreas tumor xenograft model; assay type: in vivo, nude mice; conditions: 200 μg ip
Experimental: The NEO-101 antibody was tested for anti-tumor activity using the human AsPC-1 pancreas tumor xenograft model in nude mice. In this activity model, mice were implanted with human AsPC-1 tumor cells and allowed to establish to approximately 20-50 mm^3, measurable with a caliper in approximately 4-6 days. The treatment regimen included intraperitoneal injection of 200 μg of research-grade NEO-101 or a negative control human IgG (Pierce), followed on the next day with an intraperitoneal injection of IL-2-activated normal human PBMCs (approximately 2×10^7 per mouse per injection). Two cycles of treatment were administered such that antibody injections occurred on days 5 and 8, and PBMC injections occurred on days 6 and 9 in this study. Throughout the study, the tumor growth was monitored twice weekly by measurement with a caliper. Tumor volume was calculated using the equation: […], in units of cubic millimeters. If a tumor reached approximately 800 mm^3, or became ulcerated or necrotic, the mouse was humanely sacrificed. The study was terminated on study day 35.
This anti-tumor activity study was repeated in a separate study using the same AsPC-1 pancreas tumor model and the 200 μg dose of NEO-101 antibody. However, in the second study, four cycles of treatment were administered instead of two cycles. […]

[2] = system: colorectal cancer cell line LS174T; experiment: Immunofluorescence with FITC labeled NEO-101; assay type: cell-based; conditions: 2 μg/ml FITC labeled antibody
Experimental: (§2) FACs data showing NEO-101 antibody binding to colon cancer and pancreatic cancer cell lines. Cells were washed and suspended in either 2 μg/ml NEO-101-FITC or isotype control antibody-FITC for 1 hour, washed and then subjected to FACS analysis. Experiments with all cell lines were repeated at least three times. […] DAPI was used to stain the nucleus. […] The staining pattern of these pancreatic and colorectal tumor cells was predominantly membrane-associated, consistent with the expression profile of MUC5AC.

[3] = system: pancreatic cancer cell line AsPC-1; experiment: Immunofluorescence with FITC labeled NEO-101; assay type: cell-based; conditions: 2 μg/ml FITC labeled antibody
Experimental: as §2

human tissues = experiment: Immunohistochemistry of human tissues, overall; assay type: binding
Text: Thus, the NPC-1 epitope is expressed by colon and pancreatic tumor cells but not normal colon or pancreatic […] cells. Therefore, the NPC-1 epitope may be used as a tumor-specific marker or a therapeutic target for colon and pancreatic cancer. Further, peptidomimetics of the NPC-1 epitope (e.g., the polypeptide of SEQ ID NO: 1-24) as described herein may be used in the detection and treatment of cancer (e.g., colon, pancreas, breast, lung, ovarian, stomach, esophageal).

B1: NEO-101: Chimeric NEO-101 antibody, engineered in CHO-DG44 production cell clone 4B7; targets a variant of MUC5AC (protein)
light: QVVLTQSPVIMSASPGEKVTMTCSASSSISYMYWYQQKPGTSPKRWIYDTSKLASGVPARFSGSGSGTSYSLTISNMEAGDAATYYCHQRDSYPWTFGGGTNLEIK
heavy: QVQLKESGPDLVAPSQSLSITCTVSGFSLSKFGVNWVRQPPGKGLEWLGVIWGDGSTSYNSGLISRLSISKENSKSQVFLKLNSLQADDTATYYCVKPGGDYWGHGTSVTVSS
Tissue staining intensity +1 (Colon cancer): (15%)
Tissue staining intensity +2 (Colon cancer): (8%)
Tissue staining intensity +4 (Colon cancer): (10%)
Tissue staining intensity Negative (Colon cancer): (56%)
Tissue staining intensity Weak (Colon cancer): (10%)
Tissue staining intensity +1 (Colon cancer; samples/total): 7/48
Tissue staining intensity +2 (Colon cancer; samples/total): 4/48
Tissue staining intensity +4 (Colon cancer; samples/total): 5/48
Tissue staining intensity Negative (Colon cancer; samples/total): 27/48
Tissue staining intensity Weak (Colon cancer; samples/total): 5/48
Total Positive (Colon cancer; samples/total): 21/48
Tissue staining intensity +2 (Normal colon): (25%)
Tissue staining intensity Negative (Normal colon): (75%)
Total Positive (Normal colon): (25%)
Tissue staining intensity +2 (Normal colon; samples/total): 1/4
Tissue staining intensity Negative (Normal colon; samples/total): 3/4
Total Positive (Normal colon; samples/total): one of four and 1/4
Tissue staining intensity Negative (Normal pancreas): (100%)
Total Positive (Normal pancreas): (0%)
Tissue staining intensity Negative (Normal pancreas; samples/total): 3/3
Total Positive (Normal pancreas; samples/total): 0/3
Tissue staining intensity Negative (Normal prostate): (100%)
Total Positive (Normal prostate): (0%)
Tissue staining intensity Negative (Normal prostate; samples/total): 4/4
Total Positive (Normal prostate; samples/total): 0/4
Tissue staining intensity Negative (Normal uterus): (100%)
Total Positive (Normal uterus): (0%)
Tissue staining intensity Negative (Normal uterus; samples/total): 12/12
Total Positive (Normal uterus; samples/total): 0/12
Tissue staining intensity +1 (Pancreas cancer): (16%)
Tissue staining intensity +2 (Pancreas cancer): (6%)
Tissue staining intensity +3 (Pancreas cancer): (17%)
Tissue staining intensity +4 (Pancreas cancer): (9%)
Tissue staining intensity Negative (Pancreas cancer): (52%)
Tissue staining intensity +1 (Pancreas cancer; samples/total): 17/108
Tissue staining intensity +2 (Pancreas cancer; samples/total): 7/108
Tissue staining intensity +3 (Pancreas cancer; samples/total): 18/108
Tissue staining intensity +4 (Pancreas cancer; samples/total): 10/108
Tissue staining intensity Negative (Pancreas cancer; samples/total): 56/108
Total Positive (Pancreas cancer; samples/total): 52/108
Tissue staining intensity +1 (Prostate cancer): (12%)
Tissue staining intensity +2 (Prostate cancer): (12%)
Tissue staining intensity Negative (Prostate cancer): (75%)
Total Positive (Prostate cancer): (25%)
Tissue staining intensity +1 (Prostate cancer; samples/total): 5/40
Tissue staining intensity +2 (Prostate cancer; samples/total): 5/40
Tissue staining intensity Negative (Prostate cancer; samples/total): 30/40
Total Positive (Prostate cancer; samples/total): 10/40
Tissue staining intensity +2 (Uterus cancer): (5%)
Tissue staining intensity +3 (Uterus cancer): (19%)
Tissue staining intensity Negative (Uterus cancer): (76%)
Total Positive (Uterus cancer): (24%)
Tissue staining intensity +2 (Uterus cancer; samples/total): 2/42
Tissue staining intensity +3 (Uterus cancer; samples/total): 8/42
Tissue staining intensity Negative (Uterus cancer; samples/total): 32/42
Total Positive (Uterus cancer; samples/total): 10/42
% Specific Killing (±SEM) (DU145 (Prostate); Effector:Target 12.5:1): −0.3 ± 0.1%
% Specific Killing (±SEM) (DU145 (Prostate); Effector:Target 25:1): 0.3 ± 0.8%
% Specific Killing (±SEM) (DU145 (Prostate); Effector:Target 50:1): −0.5 ± 0.3%
tumor growth versus human IgG control ([1]; four cycles, with PBMCs, significant from Day 18 (P=0.0044)): very similar growth inhibition
tumor growth versus control groups ([1]; two cycles, with IL-2-activated human PBMCs, significant from day 13 (P=0.0072)): Tumor growth inhibition was observed
binding by immunofluorescence [2]: binds
binding by immunofluorescence [3]: binds
cross-reactivity in other normal human tissues stained (human tissues): no cross-reactivity
